# Changes are numbered by the printed parent chain.
# T1: phiC31 integrase C374A (Streptomyces phage phiC31, UniProt Q38194 1-613, C374A)
# T1 sequence: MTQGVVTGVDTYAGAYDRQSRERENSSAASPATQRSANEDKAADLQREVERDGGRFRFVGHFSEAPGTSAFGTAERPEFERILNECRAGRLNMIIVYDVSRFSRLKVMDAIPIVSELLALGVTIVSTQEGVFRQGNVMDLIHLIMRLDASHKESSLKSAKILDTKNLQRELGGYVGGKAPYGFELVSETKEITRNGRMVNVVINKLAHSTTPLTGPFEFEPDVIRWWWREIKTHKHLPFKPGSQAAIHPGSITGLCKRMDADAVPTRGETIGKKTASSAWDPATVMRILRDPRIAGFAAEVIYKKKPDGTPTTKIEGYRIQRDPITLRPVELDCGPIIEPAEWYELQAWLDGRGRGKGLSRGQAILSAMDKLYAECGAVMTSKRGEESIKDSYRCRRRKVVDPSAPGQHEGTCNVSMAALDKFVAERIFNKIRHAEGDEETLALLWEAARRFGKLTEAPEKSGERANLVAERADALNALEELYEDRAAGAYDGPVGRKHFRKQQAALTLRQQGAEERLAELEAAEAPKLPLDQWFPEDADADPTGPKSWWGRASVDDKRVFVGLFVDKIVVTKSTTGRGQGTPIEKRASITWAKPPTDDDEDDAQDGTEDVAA
# T2: phiC31 integrase G182A/F183A (Streptomyces phage phiC31, UniProt Q38194 1-613, G182A;F183A)
# T2 sequence: T1 sequence with G182A, F183A, A374C
# T3: phiC31 integrase WT (Streptomyces phage phiC31, UniProt Q38194 1-613)
# T3 sequence: T1 sequence with A374C
# B1: attP 50 bp (dsDNA)
# DNA 1: GTAGTGCCCCAACTGGGGTAACCTTTGAGTTCTCTCAGTTGGGGGCGTAG
# DNA 2: CTACGCCCCCAACTGAGAGAACTCAAAGGTTACCCCAGTTGGGGCACTAC
# Experiments:
# phiC31 integrase C374A = target: T1, phiC31 integrase C374A; assay: EMSA; 50 ng/ul Poly (competitor (so in the source)), 0.05% NP-40, 50 mM KCl, 5 mM MgCl2, 10 mM EDTA, 20 ul, 0.4 ng (16 fmol) probe; 30 min at room temperature (Methods) or 30 C; pH not stated; synapsis 2 h at 30 C; conditions: protein: recombinant; tags: C-terminal His; chain copies: 2; label: biotin, double-strand end-labeled; blunt
# [1] = target: T2, phiC31 integrase G182A/F183A; assay: as above; conditions: protein: recombinant; tags: C-terminal His; chain copies: 2; label: biotin, double-strand end-labeled; blunt
# phiC31 integrase WT = target: T3, phiC31 integrase WT; assay: EMSA; complexes I, II, III; 50 ng/ul Poly (competitor (so in the source)), 0.05% NP-40, 50 mM KCl, 5 mM MgCl2, 10 mM EDTA, 20 ul, 0.4 ng (16 fmol) probe; 30 min at room temperature (Methods) or 30 C; pH not stated; synapsis 2 h at 30 C; conditions: protein: recombinant; tags: C-terminal His (pET22b); chain copies: 2; label: biotin, double-strand end-labeled; blunt
binder,measurement,setting,value
B1,binding result,phiC31 integrase C374A,no binding
same,binding result,[1],no binding
same,binding result,phiC31 integrase WT,binds
